Assay [1] concerns the target T1, human GITR expressed on the cell surface (human, UniProt Q9Y5U5 26-241).
T1 sequence: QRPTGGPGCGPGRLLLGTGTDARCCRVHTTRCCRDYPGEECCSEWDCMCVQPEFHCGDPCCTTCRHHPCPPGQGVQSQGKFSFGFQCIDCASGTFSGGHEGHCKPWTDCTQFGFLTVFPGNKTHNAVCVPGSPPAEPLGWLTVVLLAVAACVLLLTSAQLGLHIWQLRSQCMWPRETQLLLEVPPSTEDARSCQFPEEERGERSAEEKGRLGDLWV
In words: cell-based or functional assay.

For assay [2], the target named is T2, hGITR.mmH (soluble monomeric recombinant human GITR ectodomain protein) (human).
T2 construct: also called monomeric human GITR
T2 chain: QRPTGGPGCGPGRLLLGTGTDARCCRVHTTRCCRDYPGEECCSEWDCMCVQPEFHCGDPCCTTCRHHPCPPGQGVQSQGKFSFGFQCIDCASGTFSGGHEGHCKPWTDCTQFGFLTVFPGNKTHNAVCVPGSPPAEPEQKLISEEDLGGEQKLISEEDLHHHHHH
Nature of the assay: SPR Biacore T-200; purified antibody captured on anti-human Fc; 10 nM hGITR.mmH. The method, then: For purified antibodies, Biacore experiments were performed as follows. Using a Biacore T-200 instrument, antibodies were captured for 30 seconds at a flow rate of 8 uL/min on a CM5 anti-humanFc-coupled surface. Approximately 120 RU of each antibody were captured. 10 nM hGITR.mmH (soluble monomeric hGITR, SEQ ID NO: 45) or 5 nM hGITR.mFc (dimeric Macaca fasicularis GITR, SEQ ID NO: 46) were injected over this surface for 5 minutes at a flow rate of 50 uL/min. Dissociation was measured for 10 min. The KD and t_{1/2} were calculated by fitting the double-referenced sensorgrams to a 1:1 binding model.

Assay [3] deals with T2, hGITR.mmH (soluble monomeric …). Nature of the assay: SPR Biacore 2000 25C; CHOt supernatant antibody captured on anti-human Fc; 100 nM hGITR.mmH. The method, then: Biacore experiments for antibodies secreted in conditioned culture medium were performed as follows. Using a Biacore 2000 instrument at 25° C., antibodies were captured for 80 seconds at a flow rate of 8 uL/min on a CM5 anti-humanFc-coupled surface. Approximately 1000-2000 RU of each antibody were captured. 100 nM hGITR.mmH (soluble monomeric hGITR, SEQ ID NO: 45) or 50 nM hGITR.mFc (dimeric Macaca fasicularis GITR, SEQ ID NO: 46) were injected over this surface for 2 minutes at a flow rate of 50 uL/min. Dissociation was measured for 2 minutes. The KD and t_{1/2} were calculated by fitting the double-referenced sensorgrams to a 1:1 binding model.

Assay [4] has as its target T3, cynomolgus monkey GITR expressed on the cell surface (Macaca fascicularis (cynomolgus monkey)).
T3 construct: whole, on cells; also called MfGITR; Jurkat/hCD20/MfGITR cells
Nature of the assay: flow cytometry, AF647-conjugated antibody on CD4+ CD69+ cynomolgus monkey primary T cells, donor 58945. The method, then: FIG. 7 depicts antibody binding to CD69+ cynomolgus monkey primary T-cells. Primary cynomolgus monkey T-cells from 4 separate donors were stimulated in vitro with anti-CD2/anti-CD3/anti-CD28-coated beads. Cell-surface binding of AF647-conjugated mAb1 and AF647-conjugated IgG1 isotype control at a range of concentrations (8 pM to 200 nM) on CD69⁺ and CD69⁻ cynomolgus monkey primary CD4⁺ and CD8⁺ T-cells was detected using flow cytometry. Fluorescence intensity was plotted as geometric MFI. Mf, Macaca fascicularis (cynomolgus monkey)
Peripheral blood mononuclear cells (PBMC) were isolated from human or cynomolgus monkey whole blood (4 donors each) using density centrifugation through Ficoll-Paque PLUS in SepMate tubes (for human PBMC) or 50 mL conical tubes (for cynomolgus monkey PBMC) and transferred to a fresh conical tube for incubation in Red Blood Cell (RBC) Lysis Buffer. […] After 4 days, activation beads were removed from the culture using a MACSiMAG Separator, and cells were collected and counted.
Flow cytometry was used to evaluate mAb1 binding to human or cynomolgus monkey T-cells in activated PBMC. […] Data were analyzed with Flowio software. For EC₅₀ determinations, measured geometric MFI values were analyzed using a 4-parameter logistic equation over a 12-point response curve with GraphPad Prism.

The record followed here is US20240076396A1 (Regeneron, published 2024).

B1: mAb1 (antibody, human IgG1, kappa, V domains shown)
VH: QVQLQESGPGLVKPSETLSLTCIVSGGSISGYFWNWIRQPPGKGLEWIGYIYYSGTTIYNPSLKSRFTISLDTSKNQFSLKLTSVTAADTAVYYCARESYDPSPRYFDHWGQGTLVTVSS
VL: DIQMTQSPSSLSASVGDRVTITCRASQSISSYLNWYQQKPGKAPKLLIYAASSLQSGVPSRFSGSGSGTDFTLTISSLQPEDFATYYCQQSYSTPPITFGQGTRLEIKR
notes: Human IgG1; N101D variant of CompAb1; also called N101D Variant; N101D
Consider B1, for which, in assay [1], the “EC50, ADCC against human primary CD8+ T-cells Donor 0200R, NK Donor 05001” value was 0.139 nM; the “EC50, ADCC against human primary CD8+ T-cells Donor 0400N, NK Donor 04003” value turned out to be 0.0764 nM; the “EC50, ADCC against human primary CD8+ T-cells Donor 0400N, NK Donor 05001” value came to 0.116 nM; the “EC50, ADCC against human primary CD8+ T-cells Donor 5100X, NK Donor 04003” value is 0.128 nM. In addition, in assay [1], the “EC50, ADCC against human primary CD8+ T-cells Donor 5100X, NK Donor 05001” value was determined as 0.0951 nM; the “EC50, ADCC against human primary Tregs Donor 0200R, NK Donor 04003” value came to 0.0399 nM; the “EC50, ADCC against human primary Tregs Donor 0200R, NK Donor 05001” value came out at 0.0647 nM; the “EC50, ADCC against human primary Tregs Donor 0400N, NK Donor 04003” value amounted to 0.0372 nM. In assay [1], the “EC50, ADCC against human primary Tregs Donor 0400N, NK Donor 05001” value stood at 0.0449 nM; the “EC50, ADCC against human primary Tregs Donor 5100X, NK Donor 04003” value came out at 0.0888 nM; the “EC50, ADCC against human primary Tregs Donor 5100X, NK Donor 05001” value is 0.0834 nM. In addition, in assay [2], the Kd stood at 1.18 nM and the t1/2 was found to be 7.58 min. Further, in assay [3], the Kd worked out at 14.8 nM and the t1/2 amounted to 7.52 min. In assay [4], the “EC50 (read off the curve)” value was around 4 nM.
